The target of data set [1] is T1, MBP-VPS20 α1 - α4 (residues 1-145) (human, UniProt Q96FZ7 1-145).
T1 sequence (looked up): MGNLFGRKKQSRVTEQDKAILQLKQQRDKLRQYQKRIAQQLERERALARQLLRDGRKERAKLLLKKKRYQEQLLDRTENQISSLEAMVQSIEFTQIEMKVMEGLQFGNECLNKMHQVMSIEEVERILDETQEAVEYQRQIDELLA
Put plainly: SPR. A general note: In SPR one partner is held on a chip, and binding of the other changes the refractive index at the surface.

Data set [2] concerns the molecule itself. Put plainly: crystal structure.

The term Kd denotes the free concentration of one partner at which half of the binding sites on the other are occupied at equilibrium, for simple one-to-one binding. Read a low Kd as a tighter complex.

B1: VPS25c, C-terminal winged helix (WH2) domain of human VPS25 (residues 102-176) (domain or fragment, UniProt Q9BRG1 102-176, looked up)
chain: RRPEEWGKLIYQWVSRSGQNNSVFTLYELTNGEDTEDEEFHGLDEATLLRALQALQQEHKAEIITVSDGRGVKFF
In the case of B1, in data set [1], the Kd amounted to 2500 nM.

B2: VPS20 α1 (residues 11-48) (domain or fragment, human, UniProt Q96FZ7 11-48, looked up)
chain: SRVTEQDKAILQLKQQRDKLRQYQKRIAQQLERERALA
B2: the binding result in data set [2] is “binds”.

(Values after publication PMC2749878 (Developmental cell, 2009).)
